{"source": "patent US20180128830A1", "about": "“DETECTION OF HUMAN CYTOMEGALOVIRUS IN BREAST CANCER” (priority 2015, published 2018)", "key": {"[1]": {"tested_on": "MDA-MB-231 cells", "experiment": "Transcriptional profiling, Human Tumor Metastasis RT2 Profiler PCR Array", "type": "cell-based", "conditions": "100 ng/mL, 5 hrs", "description": "RNA was harvested from 10×10^6 MDA-MB-231 cells that were mock treated or treated with 100 ng/mL cmvIL-10 or hIL-10 for 5 hrs using the RNeasy Midi Kit and RNAse-Free DNase set (Qiagen, Valencia, Calif.). From the isolated RNA, cDNA was prepared using the RT^2 First Strand Kit (SA Biosciences, Frederick, Md.) and subsequently loaded into a 96-well breast cancer metastasis profiler PCR array (PAHS-028ZD) with system RT^2 SYBR Green Mastermix (SA Biosciences). The plates were run using the CFX96 Real-Time system cycler (BioRad, Hercules, Calif.) with the following amplification program: 95° C. for 10 min, 95° C. for […] with a slow ramp rate for 1.0 c/sec and 60° C. for 1 min. The data from three biological replicates for each treatment was analyzed by the ΔΔCT method according to manufacturer's instructions using the RT^2 profiler PCR array data analysis program located on the SABiosciences web portal and is reported as fold change relative to control."}, "[2]": {"tested_on": "MDA-MB-231 cells", "experiment": "Cell viability under etoposide, Cell Titer Glo", "type": "cell-based, human", "description": "(§1) Cells were seeded into 96-well dishes at a density of 1×10^4 cell per well in complete medium with varying doses of cmvIL-10, and then cell viability measured at the indicated time points using the Cell Titer Glo Assay kit according to manufacturer's instructions (Promega). DNA synthesis was measured in cells prepared in the same way using the BrdU Cell Proliferation ELISA Kit (Roche, Basel, Switzerland). For experiments using inhibitors, cells were cultivated in 96-well dishes as above with a final concentration of 10 μM inhibitor and BrdU incorporation evaluated after 72 hrs. For cell counts, cells were seeded into 6-well plates at a density of 2×10^5 cells per well, harvested via trypsinization, and counted using a hemacytometer at the indicated time points. The TACS Annexin V-FITC Detection Kit (Trevigen, Gaithersburg, Md.) was used to stain cells harvested from 70% confluent T75 flasks that had been treated with 100 μM etoposide for 48 hrs in the presence or absence of 100 ng/ml cmvIL-10. Cells were then analyzed via flow cytometry to detect fluorescence. For viability assays, Cell Titer Glo reagent was utilized to quantify cells that had been seeded into 96-well dishes at a density of 1×10^4 cell per well in complete medium with varying doses of etoposide in the presence or absence of 100 ng/ml cmvIL-10 as indicated"}, "[3]": {"tested_on": "HEK293 cells", "experiment": "Transwell migration toward CXCL12", "type": "cell-based, human", "conditions": "0.1 μg/ml cmvIL-10 in lower chamber, 4 hours", "description": "Transwell migration assays were performed by suspending cells at a density of 5×10^4 cells/ml in migration media (MEM or RPMI […] media plus 0.5% FBS). A total of 75 μl of cells was placed onto the upper chamber of a 96-well transwell system with 5.0 μm pores (Corning-Costar, Corning, N.Y.). The lower chamber contained 235 μl of migration media with CXCL12 plus or minus cmvIL-10 as indicated. Plates were incubated for four hours at 37° C., and then cells that traversed through the filter into the lower chamber were quantified via the addition of CellTitre-Glo reagent (Promega, Madison, Wis.) according to manufacturer's instructions."}, "[4]": {"tested_on": "MDA-MB-231 cells", "experiment": "Cell proliferation, Cell Titer Glo", "type": "cell-based, human", "description": "as §1"}}, "note": "Several values for one entry are separate records, joined by “and”; a condition that tells them apart may be missing. Equal entries are not always repeated.", "data": [{"molecule": "cmvIL-10 (protein) ATTTTIKNTKPQCRPEDYATRLQDLRVTFHRVKPTLQREDDYSVWLDGTVVKGCWGCSVMDWLLRRYLEIVFPAGDHVYPGLKTELHSMRSTLESIYKDMRQCPLLGCGDKSVISRLSQEAERKSDNGTRKGLSELDTLFSRLEEYLHSRK", "values": [{"measurement": "Fold Change vs. Mock, MDM2", "setting": "[1]; MDM2 mRNA", "result": 0.9531, "unit": "fold"}, {"measurement": "Fold Change vs. Mock, MET", "setting": "[1]; MET mRNA", "result": 0.9833, "unit": "fold"}, {"measurement": "Fold Change vs. Mock, METAP2", "setting": "[1]; METAP2 mRNA", "result": 1.1295, "unit": "fold"}, {"measurement": "Fold Change vs. Mock, MGAT5", "setting": "[1]; MGAT5 mRNA", "result": 1.1795, "unit": "fold"}, {"measurement": "Fold Change vs. Mock, MMP2", "setting": "[1]; MMP2 mRNA", "result": "−1.1101", "unit": "fold"}, {"measurement": "Fold Change vs. Mock, MMP3", "setting": "[1]; MMP3 mRNA", "result": "2.75 fold and 2.7478 fold"}, {"measurement": "Fold Change vs. Mock, MMP7", "setting": "[1]; MMP7 mRNA", "result": 0.9416, "unit": "fold"}, {"measurement": "Fold Change vs. Mock, MMP9", "setting": "[1]; MMP9 mRNA", "result": 1.0233, "unit": "fold"}, {"measurement": "Fold Change vs. Mock, MMP10", "setting": "[1]; MMP10 mRNA", "result": 0.5980, "unit": "fold"}, {"measurement": "Fold Change vs. Mock, MMP11", "setting": "[1]; MMP11 mRNA", "result": 0.7026, "unit": "fold"}, {"measurement": "Fold Change vs. Mock, MMP13", "setting": "[1]; MMP13 mRNA", "result": 0.8127, "unit": "fold"}, {"measurement": "Fold Change vs. Mock, MTA1", "setting": "[1]; MTA1 mRNA", "result": 0.7388, "unit": "fold"}, {"measurement": "MTSS1 fold change expressed as negative fold (down-regulation)", "setting": "[1]; MTSS1 mRNA", "result": "−3.28", "unit": "fold"}, {"measurement": "Fold Change vs. Mock, MYC", "setting": "[1]; MYC mRNA", "result": 0.8113, "unit": "fold"}, {"measurement": "Fold Change vs. Mock, MYCL1", "setting": "[1]; MYCL1 mRNA", "result": 0.5260, "unit": "fold"}, {"measurement": "Fold Change vs. Mock, NF2", "setting": "[1]; NF2 mRNA", "result": 1.0742, "unit": "fold"}, {"measurement": "Fold Change vs. Mock, NME1", "setting": "[1]; NME1 mRNA", "result": 1.0358, "unit": "fold"}, {"measurement": "Fold Change vs. Mock, NME4", "setting": "[1]; NME4 mRNA", "result": 0.8226, "unit": "fold"}, {"measurement": "Fold Change vs. Mock, NR4A3", "setting": "[1]; NR4A3 mRNA", "result": 0.5389, "unit": "fold"}, {"measurement": "Fold Change vs. Mock, PLAUR", "setting": "[1]; PLAUR (uPAR) mRNA", "result": "1.59 fold and 1.5891 fold"}, {"measurement": "Fold Change vs. Mock, PNN", "setting": "[1]; PNN mRNA", "result": 1.3088, "unit": "fold"}, {"measurement": "Fold Change vs. Mock, PTEN", "setting": "[1]; PTEN mRNA", "result": 0.7809, "unit": "fold"}, {"measurement": "Fold Change vs. Mock, RB1", "setting": "[1]; RB1 mRNA", "result": 0.9548, "unit": "fold"}, {"measurement": "Fold Change vs. Mock, RORB", "setting": "[1]; RORB mRNA", "result": 0.6953, "unit": "fold"}, {"measurement": "Fold Change vs. Mock, RPLP0", "setting": "[1]; RPLP0 mRNA", "result": 1.0376, "unit": "fold"}, {"measurement": "Fold Change vs. Mock, RPSA", "setting": "[1]; RPSA mRNA", "result": 0.9631, "unit": "fold"}, {"measurement": "Fold Change vs. Mock, SERPINE1", "setting": "[1]; SERPINE1 (PAI-1) mRNA", "result": "2.68 fold and 2.6818 fold"}, {"measurement": "Fold Change vs. Mock, SET", "setting": "[1]; SET mRNA", "result": 0.9664, "unit": "fold"}, {"measurement": "Fold Change vs. Mock, SMAD2", "setting": "[1]; SMAD2 mRNA", "result": 0.6869, "unit": "fold"}, {"measurement": "Fold Change vs. Mock, SMAD4", "setting": "[1]; SMAD4 mRNA", "result": 0.8384, "unit": "fold"}, {"measurement": "Fold Change vs. Mock, SRC", "setting": "[1]; SRC mRNA", "result": 0.5297, "unit": "fold"}, {"measurement": "Fold Change vs. Mock, SSTR2", "setting": "[1]; SSTR2 mRNA", "result": 0.5556, "unit": "fold"}, {"measurement": "Fold Change vs. Mock, SYK", "setting": "[1]; SYK mRNA", "result": 0.8590, "unit": "fold"}, {"measurement": "Fold Change vs. Mock, TCF20", "setting": "[1]; TCF20 mRNA", "result": 0.7823, "unit": "fold"}, {"measurement": "Fold Change vs. Mock, TGEB1", "setting": "[1]; TGEB1 (Transforming growth factor, beta 1) mRNA", "result": 0.7173, "unit": "fold"}, {"measurement": "Fold Change vs. Mock, TIMP2", "setting": "[1]; TIMP2 mRNA", "result": 0.7596, "unit": "fold"}, {"measurement": "Fold Change vs. Mock, TIMP3", "setting": "[1]; TIMP3 mRNA", "result": 0.8155, "unit": "fold"}, {"measurement": "Fold Change vs. Mock, TIMP4", "setting": "[1]; TIMP4 mRNA", "result": 0.7324, "unit": "fold"}, {"measurement": "Fold Change vs. Mock, TNFSF10", "setting": "[1]; TNFSF10 mRNA", "result": 0.8169, "unit": "fold"}, {"measurement": "Fold Change vs. Mock, TP53", "setting": "[1]; TP53 mRNA", "result": 0.6180, "unit": "fold"}, {"measurement": "Fold Change vs. Mock, TRPM1", "setting": "[1]; TRPM1 mRNA", "result": 0.8113, "unit": "fold"}, {"measurement": "Fold Change vs. Mock, TSHR", "setting": "[1]; TSHR mRNA", "result": 0.8113, "unit": "fold"}, {"measurement": "Fold Change vs. Mock, VEGFA", "setting": "[1]; VEGFA mRNA", "result": "0.554 fold and 0.5541 fold"}, {"measurement": "VEGFA fold change expressed as negative fold (down-regulation)", "setting": "[1]; VEGFA mRNA", "result": "−1.80", "unit": "fold"}, {"measurement": "cell viability over time", "setting": "[2]; 10 μM etoposide, 100 ng/ml cmvIL-10", "result": "able to overcome etoposide-induced effects over time and proliferate robustly"}, {"measurement": "overall cell viability", "setting": "[2]; varying doses of etoposide, 100 ng/ml cmvIL-10, 48 hours", "result": "increased overall cell viability"}, {"measurement": "migration toward CXCL12", "setting": "[3]", "result": "significantly increased"}, {"measurement": "cell growth (cell viability, RLU)", "setting": "[4]; 100 ng/ml, 72 hrs", "result": "significantly higher cell growth than control cultures"}, {"measurement": "cell growth (cell viability, RLU)", "setting": "[4]; increasing doses of cmvIL-10", "result": "greater growth than control cells"}]}]}
